The text below walks through data of patent publication US20230012273A1 (Boehringer Ingelheim, published 2023).

The target in assay [1] is T1, full-length human SIRPγ (NP_061026.2) on cells (human, UniProt Q9P1W8 29-387).
T1 construct: also called CHO-hSIRPγ; γ WT
Put plainly: flow cytometry, primary CD3+ T cells. The procedure: (§1) Antibody binding to primary human T cells expressing endogenous SIRPγ is evaluated by flow cytometry. Human peripheral blood mononuclear cells (PBMCs) are blocked with donkey IgG and incubated on ice with increasing concentrations of antibody for 60 minutes, washed and stained with AF647-conjugated donkey F(ab′)₂ anti-human IgG secondary reagent. […] Cells are washed, fixed, and analyzed by flow cytometry. Median fluorescent intensity of CD3+ gated population is determined and used as a measure of antibody binding.

The target in assay [2] is T1, full-length human SIRPγ (NP_061026.2) …. Put plainly: flow cytometry, CHO cells.
Assay [3] concerns the target T2, full-length human SIRPβ1 D→H on Expi-CHO cells (human, UniProt O00241 30-398).
T2 construct: the entry already carries the change (PDDV to PDHV)
Kind of assay: flow cytometry, Expi-CHO cells. The procedure: (§2) These cells are blocked with donkey IgG and incubated on ice with increasing concentrations of antibodies for 60 minutes, washed and stained with AF647-conjugated donkey F(ab′)₂ anti-human IgG antibodies. Stained cells are washed, fixed, and analyzed by flow cytometry. Median fluorescent intensity is determined and used as a measure of antibody binding.

In assay [4] the target is T3, recombinant human SIRPγ extracellular domain (ECD)/His protein (NP_061026.2) (human, UniProt Q9P1W8 29-360).
T3 construct: coated on ELISA plates; also called recombinant hSIRPγ; not shown: His-tag
Kind of assay: ELISA, coated SIRPγ ECD/His.

The target in assay [5] is T4, full-length cynomolgus SIRPα (XP_015313155) on CHO cells, clone P3HD10 (cynomolgus monkey, UniProt A0A2K5VYQ9 31-507).
T4 construct: whole, on cells; also called XP_015313155 Clone P3HD10
T4 sequence: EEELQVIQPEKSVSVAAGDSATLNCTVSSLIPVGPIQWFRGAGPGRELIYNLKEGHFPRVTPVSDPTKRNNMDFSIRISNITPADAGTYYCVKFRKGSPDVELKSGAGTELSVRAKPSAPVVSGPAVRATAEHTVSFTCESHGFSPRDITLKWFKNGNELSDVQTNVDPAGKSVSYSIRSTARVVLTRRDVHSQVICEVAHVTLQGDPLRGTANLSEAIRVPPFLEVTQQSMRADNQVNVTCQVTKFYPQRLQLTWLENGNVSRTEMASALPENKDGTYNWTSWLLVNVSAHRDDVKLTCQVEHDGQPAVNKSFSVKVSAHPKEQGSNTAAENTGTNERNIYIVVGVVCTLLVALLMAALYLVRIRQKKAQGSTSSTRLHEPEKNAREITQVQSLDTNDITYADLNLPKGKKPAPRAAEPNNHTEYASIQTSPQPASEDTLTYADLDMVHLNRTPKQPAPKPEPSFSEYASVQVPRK
Put plainly: flow cytometry, CHO cells. How it is done:
Antibody binding to cells expressing cynomolgus (cyno) SIRPα was evaluated by flow cytometry. CHO-K1 cells expressing full-length cyno SIRPα; derived from protein sequence accession numbers (A) EGM-02252; (B) XP_015313155; or (C) NP_001271679, are blocked with donkey IgG and incubated on ice with increasing concentrations of antibodies for 60 minutes, washed and stained with AF647-conjugated donkey F(ab′)₂ anti-human IgG secondary reagent. Cells are washed, fixed, and analyzed by flow cytometry. Median fluorescent intensity is determined and used as a measure of antibody binding.

Assay [6] deals with T5, full-length human SIRPαV2 (CAA71403.1) on cells (human, UniProt P78324 31-504).
T5 construct: one molecule for CHO-K1 and Expi-CHO transfectants (CAA71403.1) and for endogenous V2 on THP-1 cells and on CD14+ monocytes of V2/V2 donors; also called CHO-hSIRPαV2; αV2 WT
Put plainly: flow cytometry, competition with CD47 tetramer, CHO-K1 cells; * inhibition plateaus at <100%. The procedure: Cells are washed, fixed, and analyzed by flow cytometry. Median fluorescent intensity is determined and used as a measure of CD47 binding.

The target in assay [7] is T6, full-length human SIRPβL (NP_001129316.1) on cells (human, UniProt Q5TFQ8 30-398).
T6 construct: one molecule for U937 SIRPα-KO transfectants (NP_001129316.1) and Expi-CHO transfectants (Q5TFQ8); also called SIRPβ1v3; βL WT
Kind of assay: flow cytometry, Expi-CHO cells expressing full-length wild-type human SIRPβL. The procedure:
as §2, with “Expi-CHO parental cells are transduced with lentiviruses containing either full-length wild-type human SIRPβL (Q5TFQ8) or full-length human SIRPβL with a single amino acid point mutation (Table 62) and sorted to achieve matching expression levels. These” for “These”
A single amino acid substitution (H→D) introduced within the loop region maintained, strengthened, or facilitated antibody binding to these cells (FIG. 34B, Table 63).

In assay [8] the target is T7, human SIRPβ1 extracellular domain + His-tag (NP_006056.2) (human, UniProt O00241 30-371).
T7 construct: also called hSIRPβ1; HuSIRPβ1
Put plainly: SPR, Ab captured, ECD-His analyte. Summed up:
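In HBS-EP+ (1×), captured antibodies are exposed to a twofold concentration series of SIRP extracellular domain carrying a His tag, using 300 s contact at 30 μl/min and a 600 s dissociation window.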

For assay [9], the target named is T8, full-length human SIRPγ (NP_061026.2) on cells (human, UniProt Q9P1W8 29-387).
T8 construct: on CHO and Expi-CHO cells; endogenous on primary human CD3+ T cells; also called γ WT
Put plainly: flow cytometry, primary human CD3+ T cells; endogenous SIRPγ on primary human CD3+ T cells. How it is done:
as §1

B1: Anti-SIRPα antibody KWAR23 (antibody, V domains shown)
VH: EVQLQQSGAELVKPGASVKLSCTASGFNIKDYYIHWVQQRTEQGLEWIGRIDPEDGETKYAPKFQDKATITADTSSNTAYLHLSSLTSEDTAVYYCARWGAYWGQGTLVTVSS
VL: QIVLTQSPAIMSASPGEKVTLTCSASSSVSSSYLYWYQQKPGSSPKLWIYSTSNLASGVPARFSGSGSGTSYSLTISSMEAEDAASYFCHQWSSYPRTFGAGTKLELK
As for B1, the EC50 is 30 pM in assay [1]; 2700 pM in assay [2]; 10 pM in assay [3]; 100 pM in assay [4]; 500 pM in [5].

B2: Antibody E (antibody, human IgG1, kappa, L234A L235A)
heavy: not shown
light: DIVMTQSPLSLPVTPGEPASISCKSSQSLLYSNGYNYLDWYLQRPGQSPQLLIYLGSNRASGVPDRFSGSGSGTDFTLKISRVEAEDVGVFYCMQALQTPLTFGGGTKVEIKRTVAAPSVFIFPPSDEQLKSGTASVVCLLNNFYPREAKVQWKVDNALQSGNSQESVTEQDSKDSTYSLSSTLTLSKADYEKHKVYACEVTHQGLSSPVTKSFNRGEC
For the molecule B2, the IC50 in assay [6] was 700 pM.

B3: Antibody A10 (antibody, human IgG1, kappa, L234A L235A)
heavy: not shown
light: DIQMTQSPSSLSASVGDRVTITCRASQDINNYLAWFQQKPGKAPKSLIYTASSLHSGVPSKFSGSGSGTDFTLTISSLQPEDFATYYCQQYVSYPYTFGQGTKLEIKRTVAAPSVFIFPPSDEQLKSGTASVVCLLNNFYPREAKVQWKVDNALQSGNSQESVTEQDSKDSTYSLSSTLTLSKADYEKHKVYACEVTHQGLSSPVTKSFNRGEC
As for B3, the binding result in assay [7] is “no binding (tested: about 67 nM)”.

B4: Antibody A (antibody, human IgG1, kappa, L234A L235A)
heavy: not shown
light: DIQMTQSPSSLSASVGDRVTITCRASQDINNYLAWFQQKPGKAPKSLIYTASSLHSGVPSKFSGSGSGTDFTLTISSLQPEDFATYYCQQYVSYPYTFGQGTKLEIKRTVAAPSVFIFPPSDEQLKSGTASVVCLLNNFYPREAKVQWKVDNALQSGNSQESVTEQDSKDSTYSLSSTLTLSKADYEKHKVYACEVTHQGLSSPVTKSFNRGEC
On to B4, for which, in assay [8], the Kd came out at 78200 pM. Also, the binding result in [9] is recorded as “no binding”.
